Patent publication US11666658B2, “Rifamycin analogs and antibody-drug conjugates thereof” (Regeneron Pharmaceuticals, Inc., priority 2018, dated 2023)

T1: MSR1-mediated DiI-AcLDL uptake in HEK293.Myc.hMSR1 cells (Homo sapiens, UniProt P21757)
T1 construct: expressed in transfected cells; host or cells: HEK293 (lentiviral transduction, hygromycin selection)
T1 sequence (P21757 1-451): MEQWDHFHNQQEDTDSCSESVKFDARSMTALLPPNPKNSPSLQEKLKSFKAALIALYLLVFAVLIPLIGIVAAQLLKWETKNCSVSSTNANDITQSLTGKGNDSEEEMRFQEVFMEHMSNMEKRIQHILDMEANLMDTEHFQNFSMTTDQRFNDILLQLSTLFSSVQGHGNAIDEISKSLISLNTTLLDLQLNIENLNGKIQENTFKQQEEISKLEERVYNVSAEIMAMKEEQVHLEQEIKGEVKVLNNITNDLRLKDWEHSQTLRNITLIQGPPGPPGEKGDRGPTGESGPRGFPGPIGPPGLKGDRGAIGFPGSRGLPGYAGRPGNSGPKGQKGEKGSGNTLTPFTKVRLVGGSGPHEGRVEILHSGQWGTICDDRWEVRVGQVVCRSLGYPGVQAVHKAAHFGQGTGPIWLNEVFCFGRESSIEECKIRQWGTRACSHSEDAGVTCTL

T2: Ox-LDL binding to His9-hMSR1 (Homo sapiens, UniProt P21757)
T2 construct: human MSR1 extracellular domain expressed with a N-terminal nonahistidine tag; purchased R&D Systems 2708-MS
T2 sequence (P21757 77-451 limits assumed): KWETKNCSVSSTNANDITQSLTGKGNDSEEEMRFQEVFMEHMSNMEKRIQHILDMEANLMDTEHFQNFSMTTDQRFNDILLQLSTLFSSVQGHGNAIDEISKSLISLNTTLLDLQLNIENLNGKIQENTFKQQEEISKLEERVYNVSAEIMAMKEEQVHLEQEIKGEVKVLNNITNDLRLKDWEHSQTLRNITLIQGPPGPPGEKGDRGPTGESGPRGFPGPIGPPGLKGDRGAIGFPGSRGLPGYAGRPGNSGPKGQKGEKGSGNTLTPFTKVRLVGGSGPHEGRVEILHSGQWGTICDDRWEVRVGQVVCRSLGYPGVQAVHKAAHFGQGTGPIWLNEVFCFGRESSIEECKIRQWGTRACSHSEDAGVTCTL

T3: biot-AGE-BSA binding to His9-hMSR1 (Homo sapiens, UniProt P21757)
T3 construct: human MSR1 extracellular domain expressed with a N-terminal nonahistidine tag; purchased R&D Systems 2708-MS
T3 sequence (P21757 77-451 limits assumed): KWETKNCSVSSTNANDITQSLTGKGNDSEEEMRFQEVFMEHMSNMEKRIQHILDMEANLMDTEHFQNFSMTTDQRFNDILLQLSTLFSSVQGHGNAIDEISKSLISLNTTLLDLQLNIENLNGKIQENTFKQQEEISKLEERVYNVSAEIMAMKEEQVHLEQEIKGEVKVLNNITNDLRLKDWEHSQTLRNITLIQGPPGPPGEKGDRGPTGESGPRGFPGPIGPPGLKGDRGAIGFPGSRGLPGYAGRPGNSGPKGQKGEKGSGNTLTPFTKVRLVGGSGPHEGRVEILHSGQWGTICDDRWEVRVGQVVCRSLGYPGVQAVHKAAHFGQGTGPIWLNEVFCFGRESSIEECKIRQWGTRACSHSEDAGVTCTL

T4: Ac-LDL binding to His9-hMSR1 (Homo sapiens, UniProt P21757)
T4 construct: human MSR1 extracellular domain expressed with a N-terminal nonahistidine tag; purchased R&D Systems 2708-MS
T4 sequence (P21757 77-451 limits assumed): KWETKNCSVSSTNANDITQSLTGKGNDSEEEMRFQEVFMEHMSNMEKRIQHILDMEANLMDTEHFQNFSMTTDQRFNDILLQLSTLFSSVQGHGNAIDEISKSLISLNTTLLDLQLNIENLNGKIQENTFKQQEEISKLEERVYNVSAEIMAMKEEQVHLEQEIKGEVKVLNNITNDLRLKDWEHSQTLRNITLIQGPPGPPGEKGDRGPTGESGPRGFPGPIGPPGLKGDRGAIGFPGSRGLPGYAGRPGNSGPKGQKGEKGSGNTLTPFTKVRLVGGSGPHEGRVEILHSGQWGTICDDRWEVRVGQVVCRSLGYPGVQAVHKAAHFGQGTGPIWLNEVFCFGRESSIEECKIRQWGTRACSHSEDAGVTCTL

B1: H1H27734P-N297Q: one of "Twelve anti-MSR1 antibodies" that "bound to parental HEK293 cells"; human IgG1 Fc with N297Q mutation (antibody, V domains shown)
VH: EVQLVESRGGLVQPGGSLRLSCAASGFTFSSYAMSWVRQAPGKGLEWVSAISGSGGSTFYADSVKGRFTISRDNSKNTVYLQMNSLRAEDTAVYYCAKALVLRFLEWLGDYWGQGTLVTVSS
VL: DIQMTQSPSTLSASVGDRVTITCRASQSISSWLAWFQQKPGKAPKLLIYKASSLESGVPSRFSGSGSGTEFTLTISSLQPDDFATYYCQQYKSYWTFGQGTKVEIKR
B2: H2aM21229N: one of "Twelve anti-MSR1 antibodies"; "an 'H2aM' antibody has a mouse IgG2a Fc" (antibody, V domains shown)
VH: EVQLVESGGGLVKPGGSLRLSCAASGFTFSRYSMNWVRQAPGKGLEWVSSISSSSSYIYYGDTVKGRFTISRDNAKKSLYLQMNSLRAEDTAVYYCVRDRGQLVLYFDYWGQGTLVTVSS
VL: DIQMTQSPASLSTSIRDRVTITCRASLSISSFLNWFQQRPGKAPKLLIYVASNLQSGVPSRFSDSGSGTDFTLTISSLQPEDFATYYCQQNYSTPPITFGQGTRLEIK
B3: H1H27739P-N297Q: anti-MSR1 antibody; "antibodies H1H27739P-N297Q and H1H27734P-N297Q showed no inhibition of DiI-AcLDL uptake" (antibody, V domains shown)
VH: EVQLVESGGGLVQPGGSLRLSCTASGFTFSSYAMSWVRQAPGKGLEWVSAISGTGSSTYFTDSVKGRFAISRDNSKNTLYLQMNSLRAEDTAVYYCAKDGEWLSTVTLFDYWGQGTLVTVSS
VL: EIVMTQSPATLSVSPGERATLSCRASQSVSSNLAWYQQKPGQAPRLLIYGASTRATGIPARFSGSGSGTDFTLTISSLQSEDFALYYCQQYFIWPPHPTFGPGTKVDIKR
B4: H1H21227N-N297D: "The 21227N antibody was also produced as a third version with a N297D mutation" (antibody, V domains shown)
VH: QVQLVQSGAEVKKPGASVKVSCKVSGYTLTELSIHWVRQVPGKGLEWMGGFDPEEGETIFAQEFRDRVTLTEDTSPDTAYMELSSLKSEDAAVYYCTTPRYCNNGICYDYWGQGTLVTVSS
VL: DIQMTQSPSSLSASVGDRVTITCRASQSISNYLNWYQQKPGKAPKLLIYTASSLQSGVPSRFSGSGSGTDFTLTISSLQTEDFATYYCQQSYSNFPITFGQGTRLEIKR
B5: H1H21231N-N297Q: modified version of "21231N (H1H21231N-N297Q) anti-MSR1 antibodies" with "a N297Q single point mutation" (antibody, V domains shown)
VH: EVQLVESGGGLVQPGGSLRLSCAASGFTFSDHYMDWVRQAPGKGLEWVGRTRNKANSHTTEYTASVTGRFTISRDDSRNSLYLQMNSLKTEDTAVYYCVRAGIIGTLFDYWGQGTLVTVSS
VL: DIQMTQFPSSLSASVGDRVTITCRASQSISSFLNWFQQKPGKAPKFLIYAASSLQSGVPSRFSGSGSGTDFTLTISSLQPEDFATYYCQQSYSSPPITFGQGTRLEIKR

Legend:
[1] = target: T1, MSR1-mediated DiI-AcLDL uptake in HEK293.Myc.hMSR1 cells; assay: Ligand uptake assay, DiI-AcLDL; format: cell-based; details: for IC50, Dil-Acetylated LDL / % Inhibition, Dil-Acetylated LDL: 10 μg/mL DiI-AcLDL; for % Inhibition, Dil-Acetylated LDL: maximum inhibition of uptake
Method: The resulting cell line, referred to here as “HEK293.Myc.hMSR1”, was selected and maintained in DMEM containing 10% FBS, NEAA, penicillin/streptomycin, L-glutamine, and 100 μg/mL hygromycin.
After 30 minutes, either oxidized or acetylated low-density lipoprotein (LDL) labeled with 1,1′ dioctadecyl-3,3,3′,3′-tetramethylindocarbocyanine perchlorate (referred to as “DiI-OxLDL” or “DiI-AcLDL,” respectively) was added to the cells at a constant concentration of 10 μg/mL. […] Results were analyzed using nonlinear regression (4-parameter logistics) with the Prism 7 program to obtain EC50 and IC50 values. The percentage of inhibition was calculated with the Relative Fluorescent Unit (RFU) values by using the following equation: […]
In the equation, “RFUBaseline” is the fluorescence value from the cells treated with 10 μg/mL ligand without antibodies, “RFUInhibition” is the minimum fluorescence value with for a particular antibody with 10 μg/mL ligand, and “RFUBackground” is the fluorescence value from cells without any ligand or antibodies.

[2] = target: T2, Ox-LDL binding to His9-hMSR1; assay: Competition sandwich ELISA, Ox-LDL; details: anti-MSR1 antibody 500 nM, Ox-LDL 10 nM
Method: (§1) The ability of anti-MSR1 antibodies disclosed herein to block the binding of various ligands to human MSR1 was measured using three competition sandwich ELISA assays. The ligands used in the assays were: (1) acetylated LDL (Ac-LDL), (2) oxidized LDL (Ox-LDL), and (3) advanced glycation end-products of bovine serum albumin (AGE-BSA).
(§2) Anti-MSR1 antibodies or isotype control antibodies were serially diluted as appropriate for each tested ligand and added in duplicate for each serial dilution set to microtiter plates coated with His9-hMSR1. Buffer alone was also added to wells on each coat. […] This assay was conducted in four different assay runs.
(§3) Data analysis was performed using a sigmoidal dose-response model within Prism™ software (GraphPad). Percent blockade at maximum concentration of the antibody tested in each assay was calculated as an indicator of the ability of the antibodies to block the binding of Ac-LDL, Ox-LDL or biot-AGE-BSA to His9-hMSR1 on the plate relative to the baseline of the assay. In the calculation, binding signal of the same concentrations of Ac-LDL, Ox-LDL, or biot-AGE-BSA used for the assays in the absence of antibody was referenced as 100% binding or 0% blocking, while the baseline of the assay, defined as binding signal of the sample of buffer without MSR1 ligands or antibody, was referenced as 0% binding or 100% blocking. The maximum percent blockade at the highest concentration of antibody tested in each assay are reported for all antibodies.

[3] = target: T3, biot-AGE-BSA binding to His9-hMSR1; assay: Competition sandwich ELISA, biot-AGE-BSA; details: anti-MSR1 antibody 300 nM, 400 pM biot-AGE-BSA
Method: as §1
For the assay, recombinant monomeric human MSR1 protein comprised of a portion of the human MSR1 extracellular domain expressed with a N-terminal 9-Histidine tag (SEQ ID NO: 688) (His9-hMSR1; R&D Systems, Cat #2708-MS) was coated at a concentration of […] in PBS on a 96-well microtiter plate overnight at 4° C. for use in competition ELISA assays with Ac-LDL, Ox-LDL, or biotinylated-AGE-BSA (“biot-AGE-BSA”). […] Anti-MSR1 antibodies or isotype control antibodies were serially diluted as appropriate for each tested ligand and added in duplicate for each serial dilution set to microtiter plates coated with His9-hMSR1. Buffer alone was also added to wells on each coat. After 1 hour incubation at room temperature, without wash, a final constant concentration of 50 pM Ac-LDL (Life Technologies/ThermoFisher Scientific, Cat #L-35354), 5 nM or 10 nM Ox-LDL (Alfa Aesar, Cat #J65591), or 400 pM biot-AGE-BSA (R&D Systems, Cat #BT4127) were added to plates with His9-hMSR1, and the plates were incubated for an additional 1 hour at room temperature. (Concentrations of Ac-LDL, Ox-LDL and biot-AGE-BSA for antibody inhibition assays were selected from the approximate midway point within the linear portion of individual binding curves of Ac-LDL, Ox-LDL or biot-AGE-BSA to plate-coated His9-hMSR1.) Wells were washed, and plate-bound Ac-LDL or Ox-LDL were detected with anti-LDL rabbit antibody (Alfa Aesar, Cat #J64398) in combination with anti-rabbit IgG (H+L) specific donkey polyclonal antibodies conjugated with horseradish peroxidase (HRP) (JacksonImmunoResearch, Cat #711-035-152) and biot-AGE-BSA was detected with a streptavidin-HRP (ThermoFisher Scientific, Cat #N200). Plates were developed using TMB substrate solution (BD Biosciences, Cat #51-2606KC & Cat #51-2607KC) according to manufacturer's recommendation and absorbance at 450 nm was measured on a Victor™ Multilabel Plate Reader (PerkinElmer™). This assay was conducted in four different assay runs.
as §3, with “antibodies. Negative percent blockade numbers reflected higher MSR1 ligands binding to plate coated His9-hMSR1 in the presence of antibodies.” for “antibodies.”

[4] = target: T4, Ac-LDL binding to His9-hMSR1; assay: Competition sandwich ELISA, Ac-LDL; details: anti-MSR1 antibody 100 nM, 50 pM Ac-LDL
Method: as §1, §2, §3

Row | Molecule | inhibition of DiI-AcLDL uptake (in words) [1] | IC50, Dil-Acetylated LDL [1] | % Inhibition, Dil-Acetylated LDL [1] | % Blocking of Ox-LDL binding to His9-hMSR1 [2] | % Blocking of biot-AGE-BSA binding to His9-hMSR1 [3] | % Blocking of Ac-LDL binding to His9-hMSR1 [4]
1 | B1 | no inhibition of DiI-AcLDL uptake | no inhibition | no inhibition | – | – | –
2 | B2 | no inhibition of DiI-AcLDL uptake | no inhibition | no inhibition | – | – | –
3 | B3 | no inhibition of DiI-AcLDL uptake | no inhibition | no inhibition | – | – | –
4 | B4 | – | – | – | 99% | 97% | 101%
5 | B5 | – | – | – | 26% | −50% | −60%
